In patent US20070148201A1 (Pieris, published 2007):
One block for each binder: values may come before it.

Key:
RNaseB [1] = molecular target: T1, RNaseB (UniProt P61823 27-150); test: ELISA, RNaseB coated on plate, anti-T7-HRP detection
T1 construct: also called unrelated control protein RNaseB
T1 sequence (looked up): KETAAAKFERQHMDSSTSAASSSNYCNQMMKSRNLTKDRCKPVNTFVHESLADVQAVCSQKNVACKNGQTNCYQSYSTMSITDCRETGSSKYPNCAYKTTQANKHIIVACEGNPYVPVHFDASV
Protocol: (§1) Afterwards, the wells were washed and blocked as described in Example 8.
(§2) Then, a dilution series of the BBP muteins from Example 11 in SA-buffer was prepared in PBST starting from 1000 nM concentration and incubated for 1 h at room temperature. Subsequently, plates were washed again five times, anti-T7 monoclonal antibody-HRP-conjugate was added and incubated for 1 hour at room temperature followed by washing and addition of fluorogenic HRP-substrate QuantaBlu™ as described in Example 8. After 10 minutes at room temperature fluorescence was excited at a wavelength of 320 nm (±12.5 nm) and measured at 430 nm (±17.5 nm) in a GENiosPlus plate reader.

type I horse ferritin [2] = molecular target: T2, type I horse ferritin (horse, UniProt P02791 2-175; Q8MIP0 2-182, limits assumed); test: ELISA, ferritin coated on plate, mutein titrated from 1000 nM, anti-T7-HRP detection, apparent KD from curve fit
T2 construct: the natural protein is a shell of light and heavy chains
Protocol: as §1, §2
The resulting binding curves were fitted by non-linear least squares regression as described in Example 8 and are depicted in FIG. 8. The values obtained for the apparent dissociation constants of the complexes between the BBP muteins and the prescribed target ferritin are summarized in Table 5.

type I horse ferritin [3] = molecular target: T2, type I horse ferritin; test: high-throughput ELISA screening, crude cell extract, ferritin or aldolase coated on plate, anti-T7-HRP detection; Fer-O20 is one of the clones taken on from these 14
Protocol: (§3) For the detection of binding, these cell extracts were tested for their reactivity on the prescribed target type I horse ferri tin as well as the unrelated control protein aldolase in ELISA experiments. Therefore, wells of black Fluotrac 600 ELISA plates (Greiner; 384 well) were coated overnight with 20 μl of a solution of ferritin (Sigma) or aldolase (Roche) at 4° C., each at a concentration of 20 μg/ml in PBS. Plates were washed five times with 100 μl PBST/0.05 per well with an automated ELISA plate washer (Molecular Devices) leaving a residual volume of 10 μl of the washing buffer in each well after the last washing step. Residual binding sites were blocked by incubation with 100 μl PBST/0.05 containing 2% w/v BSA for 2 h at room temperature. Afterwards, plates were again washed five times as described above.
(§4) For complex formation between the BBP muteins and the immobilized proteins, the wells were incubated with 10 μl of the blocked cell extract from above for 1 hour at room temperature. […] After 60 minutes at room temperature fluorescence was excited at a wavelength of 320 nm (±12.5 nm) and measured at 430 nm (±17.5 nm) in a GENiosPlus plate reader (Tecan).

type I horse ferritin [4] = molecular target: T2, type I horse ferritin; test: high-throughput ELISA screening, crude cell extract, ferritin or aldolase coated on plate, anti-T7-HRP detection; Fer-N21 is one of the clones taken on from these 14
Protocol: as §3, §4

RNaseB [5] = molecular target: T1, RNaseB; test: ELISA: RNaseB coated on the plate as control, BBP mutein titrated 0-1000 nM, detected with anti-T7 antibody-HRP, fluorescence (Example 12)
Protocol: as §1, §2

type I horse ferritin [6] = molecular target: T2, type I horse ferritin; test: high-throughput ELISA screening, crude cell extract, ferritin or aldolase coated on plate, anti-T7-HRP detection; Fer-P4 is one of the clones taken on from these 14
Protocol: as §3, §4

type I horse ferritin [7] = molecular target: T2, type I horse ferritin; test: high-throughput ELISA screening, crude cell extract, ferritin or aldolase coated on plate, anti-T7-HRP detection; Fer-D24 is one of the clones taken on from these 14
Protocol: as §3, §4

[8] = molecular target: T3, extracellular domain of human CD47 (amino acids 1 to 119 of the mature protein, Cys15 to Ala) with Strep-tag … (human, UniProt Q08722 19-139); test: ELISA, CD47 coated on plate, mutein titrated from 2000 nM, anti-T7-HRP detection, apparent KD from curve fit
T3 construct: Produced in the periplasm of E. coli JM83, purified by the Strep-tag II; 1-119 counts on the mature CD47; also called recombinant CD47
Protocol: For the detection of binding in an ELISA the wells of a black Fluotrac 600 microtiter plate (Greiner; 384 well) were filled each with 20 μl of a solution of the intended recombinant protein target CD47 (produced as described in Example 2) or the unrelated control protein BSA both at a concentration of 50 μg/ml in PBS and were incubated for 1 h at ambient temperature. After washing five times with 100 μl PBST/0.05 per well employing an automated ELISA plate washer, the wells were filled with 100 μl PBST/0.05 3% w/v non-fat dry milk powder (Vitalia), in order to saturate unspecific binding sites and incubated for one hour at room temperature. After blocking, the microtiter plate was washed two times with 100 μl PBST/0.05 as described above.
Then a dilution series of the muteins in SA-buffer from Example 7 was prepared in PBST starting from 2000 nM concentration and incubated for 1 h at room temperature. Subsequently, plates were washed again five times like above and 20 μl of an anti-T7 monoclonal antibody-HRP-conjugate, diluted 1:1000 in PBST, was added to each well and incubated for 1 hour at room temperature. […] After 10 minutes at room temperature fluorescence was excited at a wavelength of 320 nm (±12.5 nm) and measured at 430 nm (±17.5 nm) in a GENiosPlus plate reader. […]

T2 sequence (P02791 2-175 limits assumed, chain 1 of 2): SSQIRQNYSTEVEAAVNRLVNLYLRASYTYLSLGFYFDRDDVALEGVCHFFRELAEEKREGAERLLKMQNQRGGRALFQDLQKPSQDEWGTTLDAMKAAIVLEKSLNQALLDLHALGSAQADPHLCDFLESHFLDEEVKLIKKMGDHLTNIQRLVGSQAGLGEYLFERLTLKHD
T2 sequence (Q8MIP0 2-182 limits assumed, chain 2 of 2): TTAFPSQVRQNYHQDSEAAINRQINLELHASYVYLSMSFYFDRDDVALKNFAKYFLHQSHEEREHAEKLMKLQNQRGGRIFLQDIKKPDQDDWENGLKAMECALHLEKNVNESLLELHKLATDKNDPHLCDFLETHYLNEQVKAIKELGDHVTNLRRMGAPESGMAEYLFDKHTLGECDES
T3 sequence (Q08722 other isoform, or with tags, fused parts or gaps limits assumed): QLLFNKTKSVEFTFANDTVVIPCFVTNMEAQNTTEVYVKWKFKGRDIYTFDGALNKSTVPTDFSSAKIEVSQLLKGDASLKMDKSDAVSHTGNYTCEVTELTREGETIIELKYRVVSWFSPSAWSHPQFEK

Kd (type I horse ferritin [2]): 49 nM
signal-to-control ratio (ferritin against aldolase) (type I horse ferritin [3]): > 5
B1: BBP mutein Fer-O20 (designed binder)
chain: DVYHDGACPEVKPVDNFDWSQYHGKWWEVAKCPSGKGRAGKCGWAEFTPEGKSVKVSRYDVIPAPELFMEGTAYPVGDPKIGKIYHSRTNKGLTKKTVFNVLSTDNKNYIIGYSCKYGEDQKGHKDHVWVLSRSMVLTGEAKTAVENYLIGSPVVDSQKLVYSDFSEAACKVNN
notes: Tested as expressed from pBBP47: C-terminal T7 tag followed by Strep-tag II
binding result (RNaseB [1]): no binding (tested: dilution series starting from 1000 nM)

Kd (type I horse ferritin [2]): 29 nM
signal-to-control ratio (ferritin against aldolase) (type I horse ferritin [4]): > 5
B2: BBP mutein Fer-N21 (designed binder)
chain: DVYHDGACPEVKPVDNFDWSQYHGKWWEVAKYPSNRGSKGKCGWAEYTPEGKSVKVSRYDVIPRLEAFMEGTAYPVGDSKIGKIYHSRTSKGKTKKTVFNVLSTDNKNYIIGYSCIYNERYKGHYDHVWVLSRSMVLTGEAKTAVENYLIGSPVVDSQKLVYSDFSEAACKVNN
notes: as for B1
binding result (RNaseB [1]): no binding (tested: dilution series starting from 1000 nM)

Kd (type I horse ferritin [2]): 31 nM
binding result (RNaseB [5]): no binding (tested: 1000 nM)
signal-to-control ratio (ferritin against aldolase) (type I horse ferritin [6]): > 5
B3: BBP mutein Fer-P4 (designed binder)
chain: DVYHDGACPEVKPVDNFDWSQYHGKWWEVAKYPSKGGEKGKCGWAEYTPEGKSVKVSRYDVILSSEPFMEGTAYPVGDSKIGKIYHSRTKKGETKKTVFNVLSTDNKNYIIGYSCGYCECRKGHADHVWVLSRSMVLTGEAKTAVENYLIGSPVVDSQKLVYSDFSEAACKVNN
notes: as for B1

signal-to-control ratio (ferritin against aldolase) (type I horse ferritin [7]): > 5
B4: BBP mutein Fer-D24 (designed binder)
chain: DVYHDGACPEVKPVDNFDWSQYHGKWWEVAKYPSKKGKQGKCGWAEYTPEGKSVKVSRYDVIPCLESFMEGTAYPVGDSKIGKIYHSRTKPGRTKKTVFNVPSTDNKNYIIGYSCVYPEGRKGHRDHVWVLSRSMVLTGEAKTAVENYLIGSPVVDSQKLVYSDFSEAACKVNN
notes: Tested only in the screening ELISA (crude extract, pBBP47: C-terminal T7 tag and Strep-tag II); KD not given

Kd [8]: 33 nM
B5: BBP mutein CD47-G6 (designed binder)
chain: DVYHDGACPEVKPVDNFDWSQYHGKWWEVAKYPNRREKFGKCGWAEYTPEGKSVKVSNYHVIRWGERFIEGTAYPVGDSKIGKIYHSLTLPGYTKENVFNVLSTDNKNYIIGYYCKYLERLKGHADFVWVLSRSMVLTGEAKTAVENYLIGSPVVDSQKLVYSDFSEAACKVNN
